How the values were obtained:
[1] = system: anti-FITC CAR (E2 scFv, CD8a hinge/TM, 4-1BB, CD3zeta) on CAR-J Jurkat or CAR-T cells (synthetic construct); assay: flow cytometry, CAR-T cells; details: via FITC; Cells 1e6/mL in DPBS, 1% FBS, 5 mM MgCl2, 4 C, 30 min; flow cytometry (pH 6.5 or 7.4 for i-motif; 1 mM ATP where stated)
[2] = system: anti-FITC CAR (E2 scFv, CD8a hinge/TM, 4-1BB, CD3zeta) on CAR-J Jurkat or CAR-T cells (synthetic construct); assay: flow cytometry, CAR-J cells; details: via FITC; Cells 1e6/mL in DPBS, 1% FBS, 5 mM MgCl2, 4 C, 30 min; flow cytometry (pH 6.5 or 7.4 for i-motif; 1 mM ATP where stated)

| Sequence | binding signal (fold vs ssDNA) [1] | Kd [2] [µM] |
| --- | --- | --- |
| ACATTCCTAAGTCTGAAACATTACAGCTTGCTACACGAGAAGAGCCGCCATAGTA / TTTATCACCAGGCAGTTGACAGTGTAGCAAGCTGTAATAGATGCGAGGGTCCAATAC / TTTCAACTGCCTGGTGATAAAACGACACTACGTGGGAATCTACTATGGCGGCTCTTC / TTTTCAGACTTAGGAATGTGCTTCCCACGTAGTGTCGTTTGTATTGGACCCTCGCAT [FITC-TDN-Cy5] | 3 | – |
| TTTTTTTTTTTTTTTTTTTTTTTTTTTTTTTTTTTTTTTT [FITC-DNA-Cy5] | – | 0.0264 |
